This assay deals with T1, anti-TNFα antibody-Fab (IgG-Fab derived from anti-TNFα monoclonal antibody, adalimumab) (Homo sapiens, UniProt P01834+P01857).
T1 construct: cleaving a humanized monoclonal IgG formulation as a starting material into a Fab fragment and an Fc fragment by papain; purchased
The experiment in a line: Biacore 3000 surface plasmon resonance, affinity of SpG-β1 mutants for immobilized IgG-Fab. The class given is binding. To be noted: Table 2, Example 3, GST-fused one-domain peptide; for koff / kon: 25° C., pH 7.4; for KA Vs. Wild: fold of wild-type KA.

As usually defined, the koff is the first-order rate constant of dissociation. Low readings indicate slow dissociation, high ones fast dissociation.

Where no end group is shown, it is not given here.

Consider “K10R/K13T/E15Q/K28R/F30L/D36G/E42V: GST-fused one-domain SpG-β1 mutant, amino acid SEQ ID NO: 69 (TTYKLILNGRTLTGQTTTEAVDAATAERVLKQYANGNGVDGVWTYDDATKTFTVTE; also: GST-fused, end not given here)”, for which the KA amounted to 3.3e+06 M⁻¹, the koff amounted to 0.0035 s⁻¹, the kon worked out at 115000 s/M and the “KA Vs. Wild” value stood at 8.8.
Regarding “K13S/E19I/F30L: GST-fused one-domain SpG-β1 mutant, amino acid SEQ ID NO: 29 (TTYKLILNGKTLSGETTTIAVDAATAEKVLKQYANDNGVDGEWTYDDATKTFTVTE; also: GST-fused, end not given here)”, the KA is 2.23e+06 M⁻¹, the kon was determined as 137000 s/M and the “KA Vs. Wild” value was found to be 6.0.
In the case of “K13S/E19V/F30L/Y33F: GST-fused one-domain SpG-β1 mutant, amino acid SEQ ID NO: 81 (TTYKLILNGKTLSGETTTVAVDAATAEKVLKQFANDNGVDGEWTYDDATKTFTVTE; also: GST-fused, end not given here)”, the KA was 1.54e+06 M⁻¹, the dissociation rate constant (koff) was found to be 0.0064 s⁻¹, the kon was 98400 s/M and the “KA Vs. Wild” value came out at 4.1.
In the same order, the values of “K13T/D22N/A23T/T25S/F30L/A48T: GST-fused one-domain SpG-β1 mutant, amino acid SEQ ID NO: 73 (TTYKLILNGKTLTGETTTEAVNTASAEKVLKQYANDNGVDGEWTYDDTTKTFTVTE; also: GST-fused)” are 1.06e+06 M⁻¹, 0.0098 s⁻¹, 104000 s/M and 2.8.
For “K13T/E15Q/E19I/E27D/V39I/D47H: GST-fused one-domain SpG-β1 mutant, amino acid SEQ ID NO: 77 (TTYKLILNGKTLTGQTTTIAVDAATADKVFKQYANDNGIDGEWTYDHATKTFTVTE; also: GST-fused)”, the KA came to 1.85e+06 M⁻¹, the koff is 0.0067 s⁻¹, the kon came out at 124000 s/M and the “KA Vs. Wild” value was found to be 4.9.
Turning to “K13T/E15Q/E19V/F30L/V39L: GST-fused one-domain SpG-β1 mutant, amino acid SEQ ID NO: 61 (TTYKLILNGKTLTGQTTTVAVDAATAEKVLKQYANDNGLDGEWTYDDATKTFTVTE; also: GST-fused)”, the KA amounted to 1.42e+06 M⁻¹, the koff was found to be 0.0063 s⁻¹, the kon was found to be 89800 s/M and the “KA Vs. Wild” value was 3.8.
Take “K13T/E15T/E19I/T25M/E27G/F30L/N35Y: GST-fused one-domain SpG-β1 mutant, amino acid SEQ ID NO: 63 (TTYKLILNGKTLTGTTTTIAVDAAMAGKVLKQYAYDNGVDGEWTYDDATKTFTVTE; also: GST-fused)”: the KA amounted to 1.28e+06 M⁻¹, the koff turned out to be 0.0063 s⁻¹, the kon was determined as 80700 s/M and the “KA Vs. Wild” value is 3.4.
“K13T/E19I/A23D/V39L: GST-fused one-domain SpG-β1 mutant, amino acid SEQ ID NO: 31 (TTYKLILNGKTLTGETTTIAVDDATAEKVFKQYANDNGLDGEWTYDDATKTFTVTE; also: GST-fused)”: the KA is 1.36e+06 M⁻¹, the kon was 84300 s/M and the “KA Vs. Wild” value is 3.6.
“K13T/E19I/A23T/F30L/Y33F/D47N/K50R: GST-fused one-domain SpG-β1 mutant, amino acid SEQ ID NO: 45 (TTYKLILNGKTLTGETTTIAVDTATAEKVLKQFANDNGVDGEWTYDNATRTFTVTE; also: GST-fused)”: the KA came to 2.63e+06 M⁻¹, the koff was 0.0046 s⁻¹, the kon amounted to 120000 s/M and the “KA Vs. Wild” value turned out to be 7.0.
On to “K13T/E19I/A23T/T25M/F30L: GST-fused one-domain SpG-β1 mutant, amino acid SEQ ID NO: 49 (TTYKLILNGKTLTGETTTIAVDTAMAEKVLKQYANDNGVDGEWTYDDATKTFTVTE; also: GST-fused)”, for which the KA was determined as 1.12e+06 M⁻¹, the koff was 0.0091 s⁻¹, the kon worked out at 102000 s/M and the “KA Vs. Wild” value was 3.0.
As to “K13T/E19I/D22E/A24T/F30L/Y33F/D47G: GST-fused one-domain SpG-β1 mutant, amino acid SEQ ID NO: 79 (TTYKLILNGKTLTGETTTIAVEATTAEKVLKQFANDNGVDGEWTYDGATKTFTVTE; also: GST-fused)”, the KA turned out to be 1.32e+06 M⁻¹, the koff came out at 0.0053 s⁻¹, the kon was found to be 69500 s/M and the “KA Vs. Wild” value is reported as 3.5.
With “K13T/E19I/E27D/F30L/K31R: GST-fused one-domain SpG-β1 mutant, amino acid SEQ ID NO: 35 (TTYKLILNGKTLTGETTTIAVDAATADKVLRQYANDNGVDGEWTYDDATKTFTVTE; also: GST-fused)”, the KA is 2.74e+06 M⁻¹, the kon is 150000 s/M and the “KA Vs. Wild” value amounted to 7.3.
For “K13T/E19I/F30L/D47A/K50E: GST-fused one-domain SpG-β1 mutant, amino acid SEQ ID NO: 65 (TTYKLILNGKTLTGETTTIAVDAATAEKVLKQYANDNGVDGEWTYDAATETFTVTE; also: GST-fused)”, the KA was found to be 1.14e+06 M⁻¹, the koff stood at 0.0062 s⁻¹, the kon stood at 70900 s/M and the “KA Vs. Wild” value is on record as 3.1.
For the substance “K13T/E19I/F30L/D47N: GST-fused one-domain SpG-β1 mutant, amino acid SEQ ID NO: 43 (TTYKLILNGKTLTGETTTIAVDAATAEKVLKQYANDNGVDGEWTYDNATKTFTVTE; also: GST-fused)”, the KA was 1.27e+06 M⁻¹, the koff was 0.0073 s⁻¹, the kon was 92600 s/M and the “KA Vs. Wild” value came to 3.4.
For the substance “K13T/E19I/F30L/Y33F/V39I/D47H: GST-fused one-domain SpG-β1 mutant, amino acid SEQ ID NO: 23 (TTYKLILNGKTLTGETTTIAVDAATAEKVLKQFANDNGIDGEWTYDHATKTFTVTE; also: GST-fused)”, the KA worked out at 2.06e+06 M⁻¹, the koff was 0.0039 s⁻¹, the kon turned out to be 79400 s/M and the “KA Vs. Wild” value worked out at 5.5.
As for “K13T/E19I/F30L/Y33F: GST-fused one-domain SpG-β1 mutant, amino acid SEQ ID NO: 47 (TTYKLILNGKTLTGETTTIAVDAATAEKVLKQFANDNGVDGEWTYDDATKTFTVTE; also: GST-fused)”, the KA was 1.59e+06 M⁻¹, the koff came out at 0.0067 s⁻¹, the kon was determined as 106000 s/M and the “KA Vs. Wild” value turned out to be 4.3.
On to “K13T/E19I/F30L/Y45F/D47Y: GST-fused one-domain SpG-β1 mutant, amino acid SEQ ID NO: 83 (TTYKLILNGKTLTGETTTIAVDAATAEKVLKQYANDNGVDGEWTFDYATKTFTVTE; also: GST-fused)”, for which the KA was 1.39e+06 M⁻¹, the koff was found to be 0.007 s⁻¹, the kon is 97700 s/M and the “KA Vs. Wild” value came to 3.7.
For “K13T/E19I/K28I/F30L/N35F: GST-fused one-domain SpG-β1 mutant, amino acid SEQ ID NO: 57 (TTYKLILNGKTLTGETTTIAVDAATAEIVLKQYAFDNGVDGEWTYDDATKTFTVTE; also: GST-fused)” the same measures were 1.4e+06 M⁻¹, 0.0063 s⁻¹, 88000 s/M and 3.7.
For “K13T/E19I/K28I/F30L/Y33F/E42Q/D47Y: GST-fused one-domain SpG-β1 mutant, amino acid SEQ ID NO: 59 (TTYKLILNGKTLTGETTTIAVDAATAEIVLKQFANDNGVDGQWTYDYATKTFTVTE; also: GST-fused)”, the KA came out at 1.45e+06 M⁻¹, the dissociation rate constant (koff) stood at 0.0063 s⁻¹, the kon was determined as 91000 s/M and the “KA Vs. Wild” value was found to be 3.9.
For “K13T/E19I/K28N/E42K: GST-fused one-domain SpG-β1 mutant, amino acid SEQ ID NO: 39 (TTYKLILNGKTLTGETTTIAVDAATAENVFKQYANDNGVDGKWTYDDATKTFTVTE; also: GST-fused)”, the KA is 1.1e+06 M⁻¹, the koff is 0.0124 s⁻¹, the kon is 137000 s/M and the “KA Vs. Wild” value came out at 3.0.
For the substance “K13T/E19I/K28N/F30L/D40V: GST-fused one-domain SpG-β1 mutant, amino acid SEQ ID NO: 33 (TTYKLILNGKTLTGETTTIAVDAATAENVLKQYANDNGVVGEWTYDDATKTFTVTE; also: GST-fused)”, the KA was determined as 1.43e+06 M⁻¹, the kon came out at 108000 s/M and the “KA Vs. Wild” value stood at 3.8.
As to “K13T/E19I/K28N/F30L/Y33F: GST-fused one-domain SpG-β1 mutant, amino acid SEQ ID NO: 53 (TTYKLILNGKTLTGETTTIAVDAATAENVLKQFANDNGVDGEWTYDDATKTFTVTE; also: GST-fused)”, the KA amounted to 1.44e+06 M⁻¹, the koff is 0.0061 s⁻¹, the kon was determined as 88000 s/M and the “KA Vs. Wild” value is 3.9.
Turning to “K13T/E19I/K28R/F30L/Y33F: GST-fused one-domain SpG-β1 mutant, amino acid SEQ ID NO: 27 (TTYKLILNGKTLTGETTTIAVDAATAERVLKQFANDNGVDGEWTYDDATKTFTVTE; also: GST-fused)”, the KA was found to be 2.02e+06 M⁻¹, the kon was determined as 85500 s/M and the “KA Vs. Wild” value came out at 5.4.

The record behind these values is patent US10556944B2, “Fab region-binding peptide” (priority 2013, dated 2020).
